From patent US20250304658A1
“And” between values parts separate entries of the source, which are not always exact repeats. Identical values can stand only once. Like-named read-outs stand apart in the source and are kept apart here.

B1: 7A4 (antibody, V domains shown)
VH: QVQLVESGGDLVKPGGSLRLSCVASGFTFSDYYMNWIRLPPGKGLEWISYIDSSAGAIYYADSVKGRFTVSRDDAKNSLFLHMNSLRADDTAVYYCVRERRDGHKIFDYWGPGTLVTVSS
VL: DIVMTQSPDSLAVSLGERATINCKSSQNILYSSNNKNYLAWYQQKAGQPPKLLIFWSSIRESGVPDRFSGSGSGTDFTLTISSLQAEDVAVYYCQQYYSSPYNFGRGTTLEIK
B2: 1E2 (antibody, V domains shown)
VH: QVQLVESGGDLVKPGGSLRLSCVASGFTFSDYYMNWIRLPPGKGLEWVSYIDSSAGAIYYADSVRGRFTVSRDDAKNSLFLHMNSLRADDTAVYYCARERRDGHKIFDCWGPGTLVTVSS
VL: DIVMTQSPDSLAVSLGERATINCKSSQNILYSSNNKNYLAWYQQKAGQPPKLLIFWSSTRESGVPDRFSGSGSGTDFTLTINSLQAEDVAVYYCQQYYSSPYNFGRGTTLEIK
B3: 4F7 (antibody, V domains shown)
VH: QVQLVESGGDLVKPGGSLRLSCVASGFTFSDYYMNWIRLPPGKGLEWISYIDSSAGAIYYADSVKGRFTVSRDDAKNSLFLHMNNLRADDTAVYYCARERRDGHKIFDCWGPGTLVTVSS
VL: DIVMTQSPDSLAVSLGERATINCKSSQNILYSSNNKNYLAWYQQKAGQPPKLLIFWSSTRESGVPDRFSGSGSGTDFTLTISSLQAEDVAVYYCQQYYSSPYNFGRGTTLEIK
B4: 1H10 (antibody, V domains shown)
VH: QVHLVESGGDLVKPGGSLRLSCVASGFTFSDYYMNWIRMPPGKGLEWISYIDSSAGAIYYADSVKGRFTVSRDDAKNSLFLHMNNLRADDTAVYYCARERRDGHKIFDCWGPGTLVTVSS
VL: DIVMTQSPDSLAVSLGERATINCKSSQNILYSSNNKNYLAWYQQKAGQPPKLLIFWSSTRESGVPDRFSGSGSGTDFTLTISSLQAEDVAVYYCQQYYSSPYNFGRGTTLEIK
B5: 9B4 (antibody, V domains shown)
VH: QVQLVESGGDLVKPGGSLRLSCVASGFTFSDYYMNWIRLPPGKGLEWISYIDSSAGAIYYADSVKGRFTVSRDDAKNSLFLHMNSLRADDTAVYYCARERREGHKIFDFWGPGTLVTVSS
VL: DIVMTQSPDSLALSLGERATINCKSSQNILYSSNNKNYLACYQQKAGQPPKLLIFWSSTRESGVPDRFSGSGSGTDFTLTISSLQAEDVAVYYCQQYYSSPYNFGRGTTLEIK
B6: 2F7 (antibody, V domains shown)
VH: QVQLVESGGGLVKPGGSLRLSCVASGFTFSDYYMNWIRLPPGRGLQWISYIDSSAGAIYYADSVKGRFTVSRDDAKNSLYLQMNSLRADDTAVYYCARERRDGHKIFDWWGQGTLVTVSS
VL: DIVMTQSPDSLAVSLGERATINCKSSQNILYTSNNKNYLGWYQQKAGQPPKLLIYWSSTRNSGVPDRFSGSGSGTDFTLTISSLQAEDVAVYYCHQYYSSPYTFGQGTNLEIK
B7: 8A11 (antibody, V domains shown)
VH: QVQLVESGGDLVKPGGSLRLSCVASGFTFSDYYMNWIRLPPGKGLEWISYIDSSAGATYYADSVKGRFTVSRDDAKNSLFLHMNSLRAEDTAVYYCARERRSGHKIFDCWGPGTLVTVSS
VL: DIVMTQSPDSLAVSLGERATINCKSSQNILYSSNNKNYLAWYQQKAGQPPKLLIFWSSTRESGVPDRFSGSGSGTDFTLTISSLQAEDVAVYYCQQYYSSPYNFGRGTTLEIK
B8: 8D10 (antibody, V domains shown)
VH: QVHLVESGGDLVKPGGSLRLSCVASGFTFSDYYMNWIRLPPGKGLEWISYIDSSAGAIYYADSVKGRFTVSRDDAKNSMFLHMNSLRADDTAVYYCARERRDGHKIFDYWGPGTLVTVSS
VL: DIVMTQSPDSLAVSLGERATINCKSSQNILYSSNNKNYLAWYQQKAGQPPKLLIFWSSTRESGVPDRFSGSGSGTDFTLTISSLQAEDVAVYYCQQYYSSPYNFGRGTTLEIK
B9: 5A8 (antibody, V domains shown)
VH: QVQLVESGGDLVKPGGSLRLSCVASGFTFSDYYMNWIRLPPGRGLEWISYIDSSAGAIYYADSVKGRFTVSRDDAKKSLFLYMNSLRADDTAVYYCARERRDGHKIFDYWGPGTLVTVSS
VL: DIVMTQSPDSLAVSLGERATINCKSSQNILYSSNNKNYLAWYQQKAGQPPKLLIFWSSTRESGVPDRFSGSGSGTDFTLTISSLQAEDVAVYYCHQYYSSPYNFGRGTTLEIK
B10: 2H1 (antibody, V domains shown)
VH: QVQLVESGGDLVKPGGSLRLSCVASGFTFSDYYMNWIRLPPGKGLEWISYIDSSAGAIYYADSVKGRFTVSRDDAKNSLFLHMNSLRADDTAVYYCARERRDGHKIFDCWGPGTLVTVSS
VL: DIVMTQSPDSLAVSLGERATINCKSSQNILYSSNNKNYLAWYQQKTGQPPKLLIFWSSTRESGVPDRFSGSGSGTDFTLTISSLQAEDVAVYYCQQYYSSPYNFGRGTTLEIK
B11: 6H12 (antibody, V domains shown)
VH: EVQLVESGGGLVQPGGSLRLSCAASGFTFSSYEMNWVRQAPGKGLEWVSYISSGGSSIKYADSVRGRFAFSRDNAENSVHLQMNSLRAEDTAVYYCARVGGSYYYSYAMDVWGQGTAVTVSS
VL: DIQLTQSPSFLSASVGDRVTITCWASQDISSYLAWYQQKPGKAPKLLIYAASTLQSGVPSRFTGSGSGTEFTLTISSLQPEDFATYYCQQPHNSPFSFGPGTKVDVK
B12: 11D12 (antibody, V domains shown)
VH: EVQLVESGGGLVQPGGSLRLSCAASGFTFSSYEMNWVRQAPGKGLEWVSYISSGGSSIKYADSVRGRFTFSRDNAENSVFLQMNSLRGEDTAVYYCARVGGSYYYSYAMDVWGQGTAVTVSS
VL: DIQLTQSPSFLSASVGDRVTITCWASQDISSYLAWYQQKPGKAPKLLIYAASTLQSGVPSRFSGSGSGTEFTLTISSLQPEDFATYYCQQPNNYPFSFGPGTKVDVK
B13: 2B9 (antibody, V domains shown)
VH: EVQLLESGGGLAQPGKSLRLSCAASGFTFSGFAMSWVRQAPGKGLEWVSGISGSGDITYYADSVKGRFTISRDNSKSTLYLQMNSLGAEDTAVYYCAKDPYNWNHGVYGMDVWGQGTTVTVSS
VL: DIQMTQSPSSLSASVGDRVTITCRASQSISSYLNWYQQKPGKAPKFLIYGASSLQSGVPSRFSGSGSGTDFTLTISSLQPEDFAAYYCQQSFNAPLTFGGGTKVEIK
B14: 9G9 (antibody, V domains shown)
VH: EVQLLESGGGLVQPGGSLRLSCAASGFTFHNYAMSWVRQAPGKGLEWVSGISGSGGTAYYADSVKGRFTISRDNSKNTLYLQMNSLRADDTALYYCAKDRFLEWVEGFDSWGQGTLVTVSS
VL: DIQMTQSPSSLSASVGDRVTITCRASQSIGSFLIWYQQKPGKAPKLLIYAASSLQSGVPSRFSGSGSGTDFTLIISSLQPEDFATYYCQQSYNTPLTFGGGTKVEIK
B15: 7H8 (antibody, V domains shown)
VH: EVQLLESGGGLVQPGGSLRLSCAASGFAFHTYDMTWVRQAPGKGLEWVSGVVGSGINTYYADSVKGRFTISRDNSKSTLYLQMNSLRAEDTAVYYCAKDSSSWFSLHYWGQGTLVTVSS
VL: DIQMTQSPSTLSASVGDRVTITCRASQSISNWLAWYQQKPGKAPKLLIYKASSLESGVPSRFSGSGSGTDFTLTISSLQPDDFASYYCQQYRSYAYTFGQGTKLEIT
B16: 15C10 (antibody, V domains shown)
VH: EVQLLESGGGLVQPGGSLRLSCAASGFTFSSFAMSWVRQAPGKGLEWVSGISASGGTTNYADSVKGRFTISRDNSKNTLYLQMSSLRAEDTAEYYCAKDRFLEWVEGFDPWGQGILVTVSP
VL: DIQMTQSPSSLSASVGDRVTITCRASQSIGRFLIWYQQKPGKAPKLLLYATSSLQSGVPARFTGSGSGTDFTLTIGSLQPEDFATYYCQQSYITPLTFGGGTKVEIK
B17: 14F5 (antibody, V domains shown)
VH: EVQLLESGGGLVQPGGSLRLSCAVSGFTFSSFAMSWVRQAPGKGLEWVSGISASGGTTNYADSVKGRFTISRDNSKNTLYLQMSSLRAEDTAEYYCAKDRFLEWVEGFDPWGQGILVTVSP
VL: DIQMTQSPSSLSASVGDRVTITCRASQSIGRFLIWYQQKPGKAPKLLLYATSSLQSGVPARFTGSGSGTDFTLTIGSLQPEDFATYYCQQSYITPLTFGGGTKVEIK

How the values were obtained:
[1] = molecular target: BK virus VP1 protein, genotype I (BK virus) (UniProt P03088); assay: cell-based or functional assay
[2] = molecular target: BK virus VP1 protein, genotype I (BK virus) (UniProt P03088); assay: cell-based or functional assay; remark: listed apart in the source

| Binder | EC50, pseudovirus neutralization [1] | also measured |
| --- | --- | --- |
| B1 | 9.1 pM | – |
| B2 | 59 pM | – |
| B3 | 32.5 pM | – |
| B4 | 68.4 pM | – |
| B5 | 72.5 pM | – |
| B6 | 52.5 pM | – |
| B7 | 108 pM | – |
| B8 | 62.9 pM | – |
| B9 | 20.1 pM | – |
| B10 | 20.2 pM and 41.8 pM | – |
| B11 | 3.9 pM | EC50, pseudovirus neutralization (mAb mixed with irrelevant isotype matched mAb M2) [2]: 0.96 pM |
| B12 | 10.9 pM | – |
| B13 | 32.2 pM | EC50, pseudovirus neutralization [2]: 4.2 pM; EC50, pseudovirus neutralization (mAb mixed with irrelevant isotype matched mAb M2) [1]: 2.77 pM |
| B14 | 4.7 pM | EC50, pseudovirus neutralization (mAb mixed with irrelevant isotype matched mAb M2) [2]: 2.76 pM |
| B15 | 59.6 pM | – |
| B16 | 9.4 pM | EC50, pseudovirus neutralization [2]: 0.1 pM |
| B17 | 10.1 pM | – |
